# In PMC5267525, “Sec3 promotes the initial binary t-SNARE complex assembly and membrane fusion” (Nature Communications, 2017):
# Where a chain is given by its changes, count along the chain named.
# B1: Sec3 N-terminal domain (a.a. 75–320) (domain or fragment, yeast, UniProt P33332 75-320, looked up)
# chain: SNFLAEQYERDRKAIINCCFSRPDHKTGEPPNNYITHVRIIEDSKFPSSRPPPDSKLENKKKRLLILSAKPNNAKLIQIHKARENSDGSFQIGRTWQLTELVRVEKDLEISEGFILTMSKKYYWETNSAKERTVFIKSLITLYIQTFEGHVPELVNWDLSLFYLDERSYQRAVITNRPGSVSPIKSPTSNFTTNTTQSVGSVPFSAPTERTRRSETESVNPVSTPASVEYHAGMKSLNKAPYSSNS
# notes: Sec3, yeast exocyst subunit, N-terminal domain a.a; 75-320 (contains the PH domain); Cloned in the custom vector MalpET; tag cut off by tobacco etch virus protease; also called Sec3(a.a. 75–320); source: E. coli BL21(DE3), purified (Ni-HiTrap, HiTrap-Q HP, Superdex-200); not shown: MBP-His10, N-terminal, cleaved
# B2: Sso2 reconstituted in liposomes (natural protein, yeast, UniProt P39926 1-295, looked up)
# chain: MSNANPYENNNPYAENYEMQEDLNNAPTGHSDGSDDFVAFMNKINSINANLSRYENIINQIDAQHKDLLTQVSEEQEMELRRSLDDYISQATDLQYQLKADIKDAQRDGLHDSNKQAQAENCRQKFLKLIQDYRIIDSNYKEESKEQAKRQYTIIQPEATDEEVEAAINDVNGQQIFSQALLNANRRGEAKTALAEVQARHQELLKLEKTMAELTQLFNDMEELVIEQQENVDVIDKNVEDAQQDVEQGVGHTNKAVKSARKARKNKIRCLIICFIIFAIVVVVVVVPSVVETRK
# notes: Sso2, yeast t-SNARE, called the full-length Sso2 in the fusion assays; also called Sso2 liposomes; t-SNARE liposomes reconstituted with Sso2; source: reconstituted in POPC/DOPS liposomes
# B3: His6-Sso2 (cytosolic domain, a.a. 1–270) (domain or fragment, yeast, UniProt P39926 1-270, looked up)
# chain: MSNANPYENNNPYAENYEMQEDLNNAPTGHSDGSDDFVAFMNKINSINANLSRYENIINQIDAQHKDLLTQVSEEQEMELRRSLDDYISQATDLQYQLKADIKDAQRDGLHDSNKQAQAENCRQKFLKLIQDYRIIDSNYKEESKEQAKRQYTIIQPEATDEEVEAAINDVNGQQIFSQALLNANRRGEAKTALAEVQARHQELLKLEKTMAELTQLFNDMEELVIEQQENVDVIDKNVEDAQQDVEQGVGHTNKAVKSARKARKNKIRC
# notes: Sso2, yeast t-SNARE, cytosolic domain a.a; 1-270; also called pG707
# B4: GST-tagged Sec9 C-terminal SNARE domain (a.a. 414–651) (domain or fragment, yeast, UniProt P40357 414-651, looked up)
# chain: EEARQQQEEDEAVDEIKQEIKFTKQSSVASTRNTLKMAQDAERAGMNTLGMLGHQSEQLNNVEGNLDLMKVQNKVADEKVAELKKLNRSILAVHVSNPFNSKRRRREREEQLKNRKIEEKLMREQTSQQLSQSTQRIEGAMNANNNISEVRERYQRKNVLEKAKRYQFENDEEDDEMELEIDRNLDQIQQVSNRLKKMALTTGKELDSQQKRLNNIEESTDDLDINLHMNTNRLAGIR
# notes: Sec9, yeast t-SNARE (SNAP-23 homologue), C-terminal SNARE domain a.a; 414-651; also called GST-Sec9C; pG1067; source: E. coli BL21(DE3), purified (Glutathione Sepharose 4B)
# B5: Sso2 Habc and SNARE motif (a.a. 36–227) (domain or fragment, yeast, UniProt P39926 36-227, looked up)
# chain: DFVAFMNKINSINANLSRYENIINQIDAQHKDLLTQVSEEQEMELRRSLDDYISQATDLQYQLKADIKDAQRDGLHDSNKQAQAENCRQKFLKLIQDYRIIDSNYKEESKEQAKRQYTIIQPEATDEEVEAAINDVNGQQIFSQALLNANRRGEAKTALAEVQARHQELLKLEKTMAELTQLFNDMEELVIE
# notes: Sso2, yeast t-SNARE, Habc and the SNARE motif, a.a; 36-227; Cloned in pET15b; tag removed by thrombin; also called Sso2 (a.a. 36–227); source: E. coli BL21(DE3), purified (Ni-HiTrap, HiTrap-Q HP, Superdex-200); not shown: His6, N-terminal, cleaved
# Columns and labels:
# Settings in all cases: both partners purified
# [1] = target: T1, Sso2 (a.a. 1–270), as used in size-exclusion chromatography (yeast, UniProt P39926 1-270); assay: SEC; Superdex-200 16/60 column; proteins applied individually or in mixture, Sso2 with excess Sec3N
# T1 construct: Sso2, yeast t-SNARE, a.a; The text says that this complex was later used for crystallization, for which the methods give Sso2 a.a; 36-227 with the His6 tag cleaved; the legend's limits are kept
# T1 sequence (looked up): B3 chain
# [2] = target: T2, GST-Sec3N (Sec3 N-terminus, a.a. 1–320) (yeast, UniProt P33332 1-320); assay: co-sedimentation; liposomes containing Sso2 incubated with Sec9C in the presence or absence of Sec3N at 25 °C for 30 min; liposomes collected by sedimentation; SDS-PAGE, Coomassie blue; Sso2-free liposomes as control
# T2 construct: Sec3, yeast exocyst subunit, N-terminus a.a; 1-320; also called pG1860; source: E. coli BL21(DE3), purified (Glutathione Sepharose 4B)
# T2 sequence (looked up): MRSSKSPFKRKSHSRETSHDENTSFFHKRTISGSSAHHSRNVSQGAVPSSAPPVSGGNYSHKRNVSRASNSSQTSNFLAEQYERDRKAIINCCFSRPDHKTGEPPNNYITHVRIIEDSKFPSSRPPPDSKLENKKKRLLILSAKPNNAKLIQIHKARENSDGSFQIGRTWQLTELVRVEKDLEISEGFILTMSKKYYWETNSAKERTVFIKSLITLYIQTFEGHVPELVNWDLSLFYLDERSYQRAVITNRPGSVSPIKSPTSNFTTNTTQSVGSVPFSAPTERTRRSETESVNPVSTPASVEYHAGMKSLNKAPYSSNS
# [3] = target: T2, GST-Sec3N (Sec3 N-terminus, a.a. 1–320); assay: pull-down; GST-Sec3N on glutathione Sepharose with His6-Sso2 or His6-Sec9C, or with both in three orders of addition (simultaneous; Sec3N and Sso2 pre-incubated 30 min; Sso2 and Sec9C pre-incubated 2 h); 5 μg His6-Sec9C; Coomassie blue
# [4] = target: B3; assay: pull-down; time course: His6-Sso2 (2 μM) alone added to GST-Sec9C (20 μg) on glutathione Sepharose 4B, 100 μl, 25 °C; bound Sso2 quantified from Coomassie gels; apparent rate constant from a second-order fit
# [5] = target: T3, His6-Sso2-mutHL2 (a.a. 1–270, 170DVNGQ174 to 170GSSGG174) (yeast, UniProt P39926 1-270, 170DVNGQ174 to 170GSSGG174); assay: as above
# T3 construct: Sso2, yeast t-SNARE, cytosolic domain a.a; 1-270, mutated directly from pG707; also called pG1971
# T3 sequence (looked up): B3 chain with D170G, V171S, N172S, Q174G
# [6] = target: B3; assay: pull-down; time course as a6, but His6-Sso2 (2 μM) pre-incubated with His6-Sec3N (2 μM) for 30 min at 25 °C before GST-Sec9C (20 μg) on glutathione Sepharose 4B; apparent rate constant from a second-order fit
# [7] = target: B1; assay: crystal structure; crystal form 1, space group C222(1); 0.1 M HEPES pH 7.0, 0.2 M NaCl, 25% PEG 3350; 2.20 Å
binder,measurement,setting,value
B1,binding result,[1],binds
B2,binding result,[2],binds
B3,binding result,[3],binds
B4,kon,[4],15.2 ± 0.6 M⁻¹ s⁻¹
same,binding result,[5],binds
same,kon,[6],200 ± 90 M⁻¹ s⁻¹
B5,binding result,[7],binds
